Assay results from publication PMC9365860 (Cell Reports, 2022).

Molecular target: Recombinant stabilized SARS-CoV-2 spike for ELISA (Wuhan) (SARS-CoV-2, Wuhan, UniProt P0DTC2, stabilised)
Test: ELISA
Details: both partners purified

B1: P008_60 IgG (antibody, V domains shown)
VH: EVQLVESGGGVVQPGRSLRLTCAASGFIFSSYGMHWVRQAPGKGLEWVAVISYDGSYKYYADSVKGRFTISRDNSKNTLYLQMNSLRAEDTAVYYCTKADYYDFWSGYQKTYYYYMDVWGKGTTVTISS
VL: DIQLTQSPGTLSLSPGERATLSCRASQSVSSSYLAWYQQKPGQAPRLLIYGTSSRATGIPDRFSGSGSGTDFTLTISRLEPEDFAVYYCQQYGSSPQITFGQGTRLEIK
notes: also called mAb P008_60; P008_060; source: HEK-293F, co-transfected heavy and light plasmids, purified (protein G)
B1: binds.
